Experimental data taken from IntAct's records for PubMed 21134644.

Legend:
itb1_human ITGB1 = itb1_human ITGB1 (UniProt P05556)
itb1_human ITGB1, sequence (P05556 whole entry): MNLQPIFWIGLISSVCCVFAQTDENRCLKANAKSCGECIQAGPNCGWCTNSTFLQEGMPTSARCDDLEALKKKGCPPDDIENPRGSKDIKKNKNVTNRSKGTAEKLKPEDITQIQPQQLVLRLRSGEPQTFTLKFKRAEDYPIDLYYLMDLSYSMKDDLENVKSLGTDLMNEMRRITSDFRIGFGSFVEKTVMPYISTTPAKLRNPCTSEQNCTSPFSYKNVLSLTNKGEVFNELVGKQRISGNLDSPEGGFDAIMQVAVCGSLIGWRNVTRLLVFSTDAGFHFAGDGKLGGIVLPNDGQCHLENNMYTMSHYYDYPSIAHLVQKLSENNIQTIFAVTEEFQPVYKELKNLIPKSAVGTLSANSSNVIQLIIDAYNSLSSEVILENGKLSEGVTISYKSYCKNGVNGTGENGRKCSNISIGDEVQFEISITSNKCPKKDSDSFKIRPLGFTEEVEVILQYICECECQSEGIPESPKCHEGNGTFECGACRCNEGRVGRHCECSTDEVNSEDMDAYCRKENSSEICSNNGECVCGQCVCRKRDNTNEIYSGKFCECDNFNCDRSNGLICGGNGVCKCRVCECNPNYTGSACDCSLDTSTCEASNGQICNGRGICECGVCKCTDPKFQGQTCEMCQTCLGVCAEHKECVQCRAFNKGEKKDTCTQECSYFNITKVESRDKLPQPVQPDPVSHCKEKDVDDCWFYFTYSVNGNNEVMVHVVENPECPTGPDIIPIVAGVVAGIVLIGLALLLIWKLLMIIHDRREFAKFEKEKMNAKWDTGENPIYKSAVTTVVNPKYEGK

ITGB1, P05556-5, sequence (P05556 other isoform, or with tags, fused parts or gaps): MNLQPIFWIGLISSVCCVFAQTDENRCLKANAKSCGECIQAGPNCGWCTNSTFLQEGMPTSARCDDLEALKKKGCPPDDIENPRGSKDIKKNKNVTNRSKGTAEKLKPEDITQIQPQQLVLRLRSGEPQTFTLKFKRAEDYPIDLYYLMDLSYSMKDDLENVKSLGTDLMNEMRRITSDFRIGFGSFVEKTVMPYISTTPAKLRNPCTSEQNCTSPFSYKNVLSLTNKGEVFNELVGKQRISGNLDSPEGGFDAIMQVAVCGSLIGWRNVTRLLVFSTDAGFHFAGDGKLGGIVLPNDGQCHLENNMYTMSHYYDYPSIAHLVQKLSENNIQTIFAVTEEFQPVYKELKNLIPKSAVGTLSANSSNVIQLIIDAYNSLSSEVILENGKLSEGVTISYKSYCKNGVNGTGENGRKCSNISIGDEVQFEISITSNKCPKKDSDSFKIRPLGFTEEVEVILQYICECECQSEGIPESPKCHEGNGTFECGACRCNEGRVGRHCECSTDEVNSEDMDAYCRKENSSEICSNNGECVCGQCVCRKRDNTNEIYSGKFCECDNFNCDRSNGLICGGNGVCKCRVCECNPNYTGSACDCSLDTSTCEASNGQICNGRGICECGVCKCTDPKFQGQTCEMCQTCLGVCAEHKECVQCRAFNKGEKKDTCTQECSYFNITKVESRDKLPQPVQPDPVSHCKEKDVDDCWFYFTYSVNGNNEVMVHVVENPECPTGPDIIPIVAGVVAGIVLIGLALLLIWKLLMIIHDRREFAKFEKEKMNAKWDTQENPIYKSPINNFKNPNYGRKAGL

Talin-2 (Mus musculus), Q71LX4 Y376A was tested, and the “effect of a mutation on the interaction” value (itb1_human ITGB1) was “disrupting interaction” and the “effect of a mutation on the interaction” value (ITGB1, P05556-5) was “decreasing interaction”.
